Assay results taken from US20220380463A1.
Substitutions are numbered along the chain they refer to. One block for each binder: values may come before it.

Molecular target: cynomolgus CD3εδ Fc heterodimer (Cy CD3ε Fc / CD3δ Fc-HIS) (cynomolgus) (UniProt Q95LI8)
Experiment: BLI (ForteBio), pH 6.0

cynomolgus CD3εδ Fc heterodimer (Cy CD3ε Fc / CD3δ Fc-HIS) (cynomolgus), sequence (chain, as listed by the source mutant, chain 1 of 2): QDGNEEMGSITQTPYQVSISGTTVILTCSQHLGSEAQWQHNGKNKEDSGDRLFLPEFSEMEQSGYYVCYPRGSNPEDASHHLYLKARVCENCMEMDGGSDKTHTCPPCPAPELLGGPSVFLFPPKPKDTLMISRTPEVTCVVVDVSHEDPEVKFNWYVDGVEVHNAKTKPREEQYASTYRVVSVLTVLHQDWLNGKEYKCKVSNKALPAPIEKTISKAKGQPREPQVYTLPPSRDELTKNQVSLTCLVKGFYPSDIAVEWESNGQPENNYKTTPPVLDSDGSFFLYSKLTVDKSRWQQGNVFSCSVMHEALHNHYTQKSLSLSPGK
cynomolgus CD3εδ Fc heterodimer (Cy CD3ε Fc / CD3δ Fc-HIS) (cynomolgus), sequence (Q95LI8 22-100, stated change not applied, chain 2 of 2): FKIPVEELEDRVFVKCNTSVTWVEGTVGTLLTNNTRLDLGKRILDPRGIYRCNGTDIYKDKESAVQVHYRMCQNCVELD

B1: SAD10320_P02_E05 (antibody, V domains shown)
VH: QVQLVQSGAEVKKPGASVKVSCKASGFNIKDYYMHWVRQAPGQRLEWMGWIDLENANTIYDAKFQGRVTITRDTSASTAYMELSSLRSEDTAVYYCARDMHGRYFYDVWGQGTLVTVSS
VL: DIVMTQSPDSLAVSLGERATINCKSSQSLLNARTGKNYLAWYQQKPGQPPKLLIYWASTRESGVPDRFSGSGSGTDFTLTISSLQAEDVAVYYCKQSEHRRTFGGGTKVEIK
Kd: 14.5 nM
kon: 219000 M⁻¹ s⁻¹

B2: SAD10320_P03_C08 (antibody, V domains shown)
VH: B1 VH with K23E, R44T, E46A, M100A, H101Y, R103H, Y104V
VL: B1 VL with E98Y, H99L, R100H
Kd: 323 nM
kon: 46900 M⁻¹ s⁻¹

B3: SAD10320_P03_A09 (antibody, V domains shown)
VH: B1 VH with M100A, H101Y, R103H, Y104V
VL: B1 VL with E98S
Kd: 14.6 nM
kon: 199000 M⁻¹ s⁻¹

B5: SAD10320_P03_C09 (antibody, V domains shown)
VH: B1 VH with K23E, M100A, H101Y, R103H, Y104V
VL: B1 VL with E98Y, H99L, R100H
Kd: 31.6 nM
kon: 161000 M⁻¹ s⁻¹

B6: SAD10320_P02_D06 (antibody, V domains shown)
VH: B1 VH with L45P, E46A, M100A, H101Y, R103H, Y104G
VL: B1 VL with E98Y, H99G, R100H
Kd: 23.4 nM
kon: 265000 M⁻¹ s⁻¹

B9: SAD10320_P04_A11 (antibody, V domains shown)
VH: B1 VH with E46Q, M100A, H101R, G102H
VL: B1 VL with E98Y, H99S, R100H, R101G
Kd: 29.4 nM
kon: 252000 M⁻¹ s⁻¹

B11: SAD10320_P03_E07 (antibody, V domains shown)
VH: B1 VH with M100A, H101V, G102H
VL: B1 VL with E98Y, R100P
Kd: 33.8 nM
kon: 207000 M⁻¹ s⁻¹

B12: SAD10320_P02_A06 (antibody, V domains shown)
VH: B1 VH with E46P, M100A, G102E
VL: B1 VL with E98H, H99L
Kd: 11.6 nM
kon: 228000 M⁻¹ s⁻¹

B14: SAD10320_P02_H06 (antibody, V domains shown)
VH: B1 VH with M100A, H101Y, Y104N, F105H
VL: B1 VL with N37S, E98Y, H99V, R100H
Kd: 10.5 nM
kon: 268000 M⁻¹ s⁻¹

B15: SAD10320_P03_F08 (antibody, V domains shown)
VH: B1 VH with M100A, H101Y, R103H, Y104D
VL: B1 VL with T34P, E98Y, H99S
Kd: 15 nM
kon: 179000 M⁻¹ s⁻¹

B17: SAD10320_P03_F09 (antibody, V domains shown)
VH: B1 VH with M100A, H101Y, R103H, Y104D
VL: B1 VL with E98Y
Kd: 37 nM
kon: 195000 M⁻¹ s⁻¹

B20: SAD10320_P03_H08 (antibody, V domains shown)
VH: B1 VH with M100A, H101Y, R103H, Y104V
VL: B1 VL with R33S, G35A, E98Y, H99R, R100H
Kd: 181 nM
kon: 82700 M⁻¹ s⁻¹

B22: SAD10320_P03_D08 (antibody, V domains shown)
VH: B1 VH with M100A, H101Y, R103H, Y104Q
VL: B1 VL with E98Y, R100T
Kd: 7.76 nM
kon: 249000 M⁻¹ s⁻¹

The remaining lines, values ahead:

Kd: 9.55 nM
kon: 201000 M⁻¹ s⁻¹
B4: SAD10320_P04_F11 (antibody, V domains shown)
VH: B1 VH with M100A, H101Y, R103H, Y104E
VL: B1 VL with S97G, E98H, H99S

Kd: 13.9 nM
kon: 186000 M⁻¹ s⁻¹
B7: SAD10320_P04_D12 (antibody, V domains shown)
VH: B1 VH with M100A, H101Y, R103H, Y104D
VL: B1 VL with E98Y, H99S, R100H

Kd: 16.9 nM
kon: 200000 M⁻¹ s⁻¹
B8: SAD10320_P04_D11 (antibody, V domains shown)
VH: B1 VH with E46Q, M100A, H101Y, R103H, Y104V
VL: B1 VL with E98Y, R100H

Kd: 79.8 nM
kon: 136000 M⁻¹ s⁻¹
B10: SAD10320_P04_E12 (antibody, V domains shown)
VH: B1 VH with M100A, H101Y, R103H, Y104T
VL: B1 VL with E98Y, R100V

Kd: 240 nM
kon: 69700 M⁻¹ s⁻¹
B13: SAD10320_P04_A12 (antibody, V domains shown)
VH: B1 VH with M100A, H101Y, R103H, Y104V
VL: B1 VL with E98Y, R100H

Kd: 168 nM
kon: 111000 M⁻¹ s⁻¹
B16: SAD10320_P04_C10 (antibody, V domains shown)
VH: B1 VH with M100A, H101Y, R103H, Y104A
VL: B1 VL with E98Y, R100Q

Kd: 20.1 nM
kon: 148000 M⁻¹ s⁻¹
B18: SAD10320_P04_E11 (antibody, V domains shown)
VH: B1 VH with M100A, H101Y, R103H, Y104D
VL: B1 VL with E98Y, H99G, R100H

Kd: 8.51 nM
kon: 281000 M⁻¹ s⁻¹
B19: SAD10320_P04_F10 (antibody, V domains shown)
VH: B1 VH with R44T, E46D, M100A, H101Y, Y104N, F105H
VL: B1 VL with T34P, E98Y, H99L, R100H

Kd: 15.7 nM
kon: 176000 M⁻¹ s⁻¹
B21: SAD10320_P04_G11 (antibody, V domains shown)
VH: B1 VH with M100A, H101Y, G102R, R103H, Y104E
VL: B1 VL with E98Y, H99Y, R100H
